No end group written: not given here.
What was measured:
Test in all cases: Kinase Profiling Assay
Assay type in all cases: biochemical
Conditions in all cases: peptide 100 μM
IGF-1R(h), activated = target: T1, IGF-1R(h), activated (Homo sapiens, UniProt P08069)
T1 construct: purchased Millipore
Outline: (§1)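 Activity remaining relative to an uninhibited control was determined by scintillation counting of labeled substrate bound to a negatively charged filter. Radiolabeled phosphate came from ATP; the substrate carried positive charge. Duplicate measurements, within a 266-kinase human panel.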

NLK(h) = target: T2, NLK(h) (Homo sapiens, UniProt Q9UBE8)
T2 construct: purchased Millipore
T2 sequence (Q9UBE8 1-527): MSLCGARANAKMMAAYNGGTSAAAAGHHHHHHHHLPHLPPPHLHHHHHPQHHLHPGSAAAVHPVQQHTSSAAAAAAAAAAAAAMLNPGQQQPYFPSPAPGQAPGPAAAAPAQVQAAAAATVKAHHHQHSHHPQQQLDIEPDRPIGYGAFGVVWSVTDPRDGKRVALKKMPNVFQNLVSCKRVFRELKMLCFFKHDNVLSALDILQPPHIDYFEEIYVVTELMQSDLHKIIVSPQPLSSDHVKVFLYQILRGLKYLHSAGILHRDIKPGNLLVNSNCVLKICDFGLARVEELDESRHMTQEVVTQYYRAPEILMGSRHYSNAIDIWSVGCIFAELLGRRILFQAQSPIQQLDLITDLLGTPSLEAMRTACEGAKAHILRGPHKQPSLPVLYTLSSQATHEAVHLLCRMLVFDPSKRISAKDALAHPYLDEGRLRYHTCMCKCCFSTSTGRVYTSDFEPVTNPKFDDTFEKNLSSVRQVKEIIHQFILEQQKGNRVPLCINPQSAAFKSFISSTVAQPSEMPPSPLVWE
Outline: as §1

Pim-2(h) = Pim-2(h) (Homo sapiens, UniProt Q9P1W9)
Chain of Pim-2(h) (Q9P1W9 whole entry): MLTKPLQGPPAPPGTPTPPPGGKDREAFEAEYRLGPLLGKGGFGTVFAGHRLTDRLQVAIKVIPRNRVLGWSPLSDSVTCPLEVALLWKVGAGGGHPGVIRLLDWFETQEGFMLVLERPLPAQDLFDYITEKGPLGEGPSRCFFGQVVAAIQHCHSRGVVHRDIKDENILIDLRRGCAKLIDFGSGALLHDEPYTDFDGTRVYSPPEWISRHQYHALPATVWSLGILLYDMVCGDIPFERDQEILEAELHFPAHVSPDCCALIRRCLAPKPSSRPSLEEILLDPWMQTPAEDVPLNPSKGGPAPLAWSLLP
Outline: as §1

cKit(V654A)(h) = cKit(V654A)(h) (Homo sapiens, UniProt P10721, V654A)
Outline: as §1

mTOR/FKBP12(h) = target: T3, mTOR/FKBP12(h) (Homo sapiens, UniProt P42345)
T3 construct: purchased Millipore
T3 sequence (P42345 1362-2549 limits assumed): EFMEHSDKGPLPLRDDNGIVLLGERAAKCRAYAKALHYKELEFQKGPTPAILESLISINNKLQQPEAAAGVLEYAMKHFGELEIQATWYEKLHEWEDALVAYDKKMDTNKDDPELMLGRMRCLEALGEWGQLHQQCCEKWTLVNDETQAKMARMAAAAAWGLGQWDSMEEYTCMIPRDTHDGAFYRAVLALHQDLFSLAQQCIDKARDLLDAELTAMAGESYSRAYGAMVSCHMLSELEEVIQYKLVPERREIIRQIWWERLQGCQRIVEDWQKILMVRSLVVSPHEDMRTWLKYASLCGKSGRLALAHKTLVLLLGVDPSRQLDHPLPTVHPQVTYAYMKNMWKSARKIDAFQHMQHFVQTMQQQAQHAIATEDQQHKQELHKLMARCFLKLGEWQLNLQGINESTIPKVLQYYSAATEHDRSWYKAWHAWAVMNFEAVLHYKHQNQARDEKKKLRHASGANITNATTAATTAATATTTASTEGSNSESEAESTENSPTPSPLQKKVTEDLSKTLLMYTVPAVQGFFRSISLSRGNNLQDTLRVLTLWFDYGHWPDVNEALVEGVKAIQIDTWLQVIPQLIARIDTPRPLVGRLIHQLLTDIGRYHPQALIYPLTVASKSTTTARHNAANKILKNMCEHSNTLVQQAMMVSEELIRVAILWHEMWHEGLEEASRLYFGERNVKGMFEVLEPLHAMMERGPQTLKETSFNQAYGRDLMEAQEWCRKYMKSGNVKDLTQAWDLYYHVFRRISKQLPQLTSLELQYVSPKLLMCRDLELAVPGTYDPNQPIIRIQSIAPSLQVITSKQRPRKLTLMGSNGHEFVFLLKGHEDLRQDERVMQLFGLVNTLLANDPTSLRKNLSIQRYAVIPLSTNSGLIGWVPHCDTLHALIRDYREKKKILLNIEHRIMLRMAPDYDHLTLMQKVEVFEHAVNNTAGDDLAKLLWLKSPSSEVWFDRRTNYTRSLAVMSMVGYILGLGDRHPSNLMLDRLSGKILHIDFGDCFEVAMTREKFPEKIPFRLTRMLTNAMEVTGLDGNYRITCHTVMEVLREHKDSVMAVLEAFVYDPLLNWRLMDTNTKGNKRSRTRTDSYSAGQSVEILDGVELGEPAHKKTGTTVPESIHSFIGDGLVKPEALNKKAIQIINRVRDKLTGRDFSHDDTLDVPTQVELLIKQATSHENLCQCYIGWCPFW
Outline: as §1

JAK3(h) = target: T4, JAK3(h) (Homo sapiens, UniProt P52333)
T4 construct: purchased Millipore
T4 sequence (P52333 1-1124): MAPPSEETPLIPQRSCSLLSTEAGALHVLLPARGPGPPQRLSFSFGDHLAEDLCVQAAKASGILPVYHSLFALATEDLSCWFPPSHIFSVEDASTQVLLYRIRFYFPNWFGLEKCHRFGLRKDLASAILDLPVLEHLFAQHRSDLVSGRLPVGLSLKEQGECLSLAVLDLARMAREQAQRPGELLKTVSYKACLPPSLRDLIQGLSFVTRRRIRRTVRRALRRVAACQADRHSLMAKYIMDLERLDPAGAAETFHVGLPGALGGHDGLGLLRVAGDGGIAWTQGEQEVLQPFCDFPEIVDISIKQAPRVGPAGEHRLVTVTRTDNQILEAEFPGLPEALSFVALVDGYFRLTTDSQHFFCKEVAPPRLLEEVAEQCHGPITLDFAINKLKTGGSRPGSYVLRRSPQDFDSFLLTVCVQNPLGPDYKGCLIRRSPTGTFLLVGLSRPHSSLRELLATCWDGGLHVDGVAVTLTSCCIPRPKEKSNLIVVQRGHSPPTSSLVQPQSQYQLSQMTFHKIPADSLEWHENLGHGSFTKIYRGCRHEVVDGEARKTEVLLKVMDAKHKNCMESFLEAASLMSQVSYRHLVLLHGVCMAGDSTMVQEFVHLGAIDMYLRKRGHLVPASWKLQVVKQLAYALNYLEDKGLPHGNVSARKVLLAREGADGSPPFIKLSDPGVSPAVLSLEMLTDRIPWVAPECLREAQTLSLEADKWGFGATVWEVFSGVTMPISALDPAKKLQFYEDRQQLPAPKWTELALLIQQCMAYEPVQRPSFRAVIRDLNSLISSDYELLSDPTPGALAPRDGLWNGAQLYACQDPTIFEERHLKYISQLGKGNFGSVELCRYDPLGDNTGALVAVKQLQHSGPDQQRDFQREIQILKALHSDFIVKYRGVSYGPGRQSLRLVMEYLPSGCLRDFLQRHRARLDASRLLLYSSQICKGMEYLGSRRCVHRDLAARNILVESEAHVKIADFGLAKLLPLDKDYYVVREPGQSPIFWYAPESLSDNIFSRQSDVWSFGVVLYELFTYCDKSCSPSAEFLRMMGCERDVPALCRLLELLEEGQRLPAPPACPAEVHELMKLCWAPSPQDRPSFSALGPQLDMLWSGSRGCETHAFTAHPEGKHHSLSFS
Outline: as §1

T1 sequence (P08069 959-1367 limits assumed): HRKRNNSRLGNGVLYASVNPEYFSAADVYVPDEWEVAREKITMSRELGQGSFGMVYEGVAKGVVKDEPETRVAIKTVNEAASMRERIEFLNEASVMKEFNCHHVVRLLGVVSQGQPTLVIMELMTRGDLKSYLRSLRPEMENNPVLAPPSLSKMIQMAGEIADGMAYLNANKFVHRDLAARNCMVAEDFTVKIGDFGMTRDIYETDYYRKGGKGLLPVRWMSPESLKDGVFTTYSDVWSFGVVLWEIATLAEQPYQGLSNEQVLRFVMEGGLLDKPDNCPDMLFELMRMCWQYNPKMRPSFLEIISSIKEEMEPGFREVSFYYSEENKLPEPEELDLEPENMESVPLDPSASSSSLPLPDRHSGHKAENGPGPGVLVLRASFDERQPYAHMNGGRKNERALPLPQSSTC

| Sequence | % activity (IGF-1R(h), activated) [%] | % activity (NLK(h)) [%] | % activity (Pim-2(h)) [%] | % activity (cKit(V654A)(h)) [%] | % activity (mTOR/FKBP12(h)) [%] | % activity (JAK3(h)) [%] |
| --- | --- | --- | --- | --- | --- | --- |
| FAKLAARLYRKALARQLGVAA [MMI-0300] | 80 | 87 | 76 | 134 | 145 | – |
| HRRIKAWLKKIKALARQLGVAA (Mammal) [MMI-0500] | 45 | 19 | 46 | 223 | 140 | 95 |
| KAFAKLAARLYRKALARQLGVAA [MMI-0400] | 77 | 90 | 92 | 150 | 125 | 122 |
| YARAAARQARAKALARQLGVAA [MMI-0100] | 126 | 100 | – | 69 | – | 150 |
| YARAAARQARAKALNRQLGVA (Mammal) [MMI-0200] | 94 | – | 74 | – | 118 | – |

Source: patent US20150258192A1, “COMPOSITIONS AND METHODS FOR PREVENTING OR TREATING CHRONIC LUNG ALLOGRAFT DYSFUNCTION (CLAD) AND IDIOPATHIC PULMONARY FIBROSIS (IPF)” (priority 2014, published 2015)
